Test results as given in US20240271119A1 (BROAD INSTITUTE, published 2024).
Where a chain is given by its changes, count along the chain named. Numbers in names are those of the source.

Legend:
[1] = target: YibK(V139R)-SH2 (periplasmic, from SS-YibK(V139R)-SH2); assay: cell-based or functional assay
[2] = target: YibK-SH2 (periplasmic, from SS-YibK-SH2); assay: cell-based or functional assay
[3] = target: the molecule itself; assay: Western blot of whole-cell lysate with and without DTT
[4] = target: CadC1-155-Leu(16)TM-GCN4(7P14P) (pMM114a) (E. coli; yeast); assay: cell-based or functional assay
[5] = target: GCN4(7P14P)-SH2 (periplasmic, from SSPelB-GCN4(7P14P)-SH2, pMM95a) (yeast); assay: cell-based or functional assay

With “YibK(V139R)-SH2 (periplasmic, from SS-YibK(V139R)-SH2)” the PcadBA-directed LuxAB expression [1] was > 8 fold loss.

In the case of “YibK-SH2 (periplasmic, from SS-YibK-SH2)”, the PcadBA transcriptional activation (LuxAB luminescence) [2] is reported as 66 fold and the overnight phage propagation [2] is reported as > 1000 fold.

B1: YibK(V139R R146C)-SH2 (periplasmic, pMM103g) (other)
chain: MLDIVLYEPEIPQNTGNIIRLCANTGFRLHLIEPLGFTWDDKRLRRSGLDYHEFAEIKRHKTFEAFLESEKPKRLFALTTKGCPAHSQVKFKLGDYLMFGPETRGIPMSILNEMPMEQKIRIPMTANSRSMNLSNSVARTVYEAWCQLGYKGAVNLPEVKGGSGGSGGSGGSGGSSLEKHSWYHGPVSRNAAEYLLSSGINGSFLVRESESSPGQRSISLRYEGRVYHYRINTASDGKLYVSSESRFNTLAELVHHHSTVADGLITTLHYPAPKR
B1: binds [3].

B2: Ω-graft scFv variant 37o5c2.1 (R1C F232A) (scFv)
scFv: CDIVMTQSPSSLSASVGDRVTITCRSSTGAVTTSNYASWVQEKPGKLFKGLIGGTNNRAPGVPSRFSGSLIGDKATLTISSLQPEDFATYFCALWYSNHWVFGQGTKVELKRGGGGSGGGGSGGGGSSGGGSEVKLLESGGGLVQPGGSLKLSCAVSGFSLTDYGVNWVRQAPGRGLEWIGVIWGDGITDYNSALKDRFIISKDDCENTVYLQMSKVRSDDTALYYCVTGLADYWGQGTLVTVSS
B2 showed an overnight phage enrichment [4] of 1000 fold.

B3: Ω-graft-SH2 (periplasmic, from SS-Ω-graft-SH2) (scFv)
scFv: RDIVMTQSPSSLSASVGDRVTITCRSSTGAVTTSNYASWVQEKPGKLFKGLIGGTNNRAPGVPSRFSGSLIGDKATLTISSLQPEDFATYFCALWYSNHWVFGQGTKVELKRGGGGSGGGGSGGGGSSGGGSEVKLLESGGGLVQPGGSLKLSCAVSGFSLTDYGVNWVRQAPGRGLEWIGVIWGDGITDYNSALKDRFIISKDDCENTVYLQMSKVRSDDTALYYCVTGLFDYWGQGTLVTVSSGGSGGSGGSGGSGGSSLEKHSWYHGPVSRNAAEYLLSSGINGSFLVRESESSPGQRSISLRYEGRVYHYRINTASDGKLYVSSESRFNTLAELVHHHSTVADGLITTLHYPAPKR
For B3, the PcadBA-driven LuxAB expression [5] was 30 fold and the phage enrichment in mock selection (PACE 12 hours or two PANCE passages) [5] was > 1000 fold.

B4: Ω-graft(L231F F232A)-SH2 (periplasmic, from SS-Ω-graft(L231F F232A)-SH2) (scFv)
scFv: B3 scFv with L231F, F232A
In the case of B4, the PcadBA transcriptional activation (LuxAB) (fold decrease) [5] is reported as 55.
